Laboratory results: article PMC6620310, “A ubiquitin-like domain is required for stabilizing the N-terminal ATPase module of human SMCHD1” (Communications Biology, 2019)
Residue numbers refer to the chain shown, from its start. Names and notes keep the numbering of the source.

B1: SMCHD1(24–580/E147A), seleno-methionine-labeled (domain or fragment, human, UniProt A6NHR9 24-580, looked up)
chain: GHRTVYLFDRREKESELGDRPLQVGERSDYAGFRACVCQTLGISPEEKFVITTTSRKEITCDNFDETVKDGVTLYLLQSVNQLLLTATKERIDFLPHYDTLVKSGMYEYYASEGQNPLPFALAALIDNSLSATSRNIGVRRIQIKLLFDETQGKPAVAVIDNGRGMTSKQLNNWAVYRLSKFTRQGDFESDHSGYVRPVPVPRSLNSDISYFGVGGKQAVFFVGQSARMISKPADSQDVHELVLSKEDFEKKEKNKEAIYSGYIRNRKPSDSVHITNDDERFLHHLIIEEKEKDSFTAVVITGVQPEHIQYLKNYFHLWTRQLAHIYHYYIHGPKGNEIRTSKEVEPFNNIDIEISMFEKGKVPKIVNLREIQDDMQTLYVNTAADSFEFKAHVEGDGVVEGIIRYHPFLYDRETYPDDPCFPSKLKDEDDEDDCFILEKAARGKRPIFECFWNGRLIPYTSVEDFDWCTPPKKRGLAPIECYNRISGALFTNDKFQVSTNKLTFMDLELKLKDKNTLFTRILNGQEQRMKIDREFALWLKDCHEKYDKQIKFTLFK
modifications: selenomethionine substituted for methionine
notes: Crystallised as a homodimer with one ATP per monomer; two homodimers in the asymmetric unit; also called SMCHD1 E147A; source: E. coli B834(DE3), purified (glutathione resin, TEV cleavage, Superdex200 with Mg2+/ATP, MonoQ)
B2: SMCHD1(24–580) Q345R (domain or fragment, human, UniProt A6NHR9 24-580, looked up)
chain: B1 chain with A124E, Q322R
notes: SMCHD1, human, residues 24-580 with the arhinia variant Q345R; PDB 6MW7 holds the same limits with E147A; Human disease variant (arhinia); also called p.Q345R; source: E. coli Rosetta2(DE3), purified (Glutathione 4B Sepharose, TEV cleavage, Superdex200)
B3: SMCHD1(24–580) S135C (domain or fragment, human, UniProt A6NHR9 24-580, looked up)
chain: B1 chain with S112C, A124E
notes: SMCHD1, human, residues 24-580 with the arhinia variant S135C; PDB 6MW7 holds the same limits with E147A; Human disease variant (arhinia); also called p.S135C; source: E. coli Rosetta2(DE3), purified (Glutathione 4B Sepharose, TEV cleavage, Superdex200)
B4: SMCHD1(24–580) E473Q (domain or fragment, human, UniProt A6NHR9 24-580, looked up)
chain: B1 chain with A124E, E450Q
notes: SMCHD1, human, residues 24-580 with the arhinia variant E473Q; PDB 6MW7 holds the same limits with E147A; Human disease variant (arhinia); also called p.E473Q; source: E. coli Rosetta2(DE3), purified (Glutathione 4B Sepharose, TEV cleavage, Superdex200)
B5: SMCHD1(24–580) E473G (domain or fragment, human, UniProt A6NHR9 24-580, looked up)
chain: B1 chain with A124E, E450G
notes: SMCHD1, human, residues 24-580 with the arhinia variant E473G; PDB 6MW7 holds the same limits with E147A; Human disease variant (arhinia); also called p.E473G; source: E. coli Rosetta2(DE3), purified (Glutathione 4B Sepharose, TEV cleavage, Superdex200)
B6: SMCHD1(24–580) G137E (domain or fragment, human, UniProt A6NHR9 24-580, looked up)
chain: B1 chain with G114E, A124E
notes: SMCHD1, human, residues 24-580 with the variant G137E (implicated in both arhinia and FSHD2); PDB 6MW7 holds the same limits with E147A; Human disease variant (arhinia and FSHD2); also called p.G137E; source: E. coli Rosetta2(DE3), purified (Glutathione 4B Sepharose, TEV cleavage, Superdex200)
B7: SMCHD1(24–580) H348R (domain or fragment, human, UniProt A6NHR9 24-580, looked up)
chain: B1 chain with A124E, H325R
notes: SMCHD1, human, residues 24-580 with the arhinia variant H348R; PDB 6MW7 holds the same limits with E147A; Human disease variant (arhinia); also called p.H348R; source: E. coli Rosetta2(DE3), purified (Glutathione 4B Sepharose, TEV cleavage, Superdex200)
B8: SMCHD1(24–580) N139H (domain or fragment, human, UniProt A6NHR9 24-580, looked up)
chain: B1 chain with N116H, A124E
notes: SMCHD1, human, residues 24-580 with the arhinia variant N139H; PDB 6MW7 holds the same limits with E147A; Human disease variant (arhinia); also called p.N139H; source: E. coli Rosetta2(DE3), purified (Glutathione 4B Sepharose, TEV cleavage, Superdex200)
B9: SMCHD1(24–580) T523K (domain or fragment, human, UniProt A6NHR9 24-580, looked up)
chain: B1 chain with A124E, T500K
notes: SMCHD1, human, residues 24-580 with the arhinia variant T523K; PDB 6MW7 holds the same limits with E147A; Human disease variant (arhinia); also called p.T523K; source: E. coli Rosetta2(DE3), purified (Glutathione 4B Sepharose, TEV cleavage, Superdex200)

Biological target: the molecule itself
Assay: crystal structure; seleno-methionine protein at 8.5 mg/ml with 5 mM Mg2+/ATP, sitting drop; SAD phasing, 2.2 Å

Binding result, binds:
B1

Biological target: the molecule itself
Assay: cross-linking; glutaraldehyde (final 0.0125%), protein at 2 mg/mL in 20 mM HEPES pH 7.5, 100 mM NaCl, 10% glycerol with 5 mM MgCl2 and 5 mM ATP, 40 min at room temperature, diluted 6.25-fold; SDS-PAGE

Binding result, binds:
B2

Biological target: the molecule itself
Assay: native gel or EMSA; blue-native PAGE, 4–16% Bis-Tris; 2.2 µg/µl protein incubated with 5 mM MgCl2 and ATP 30 min on ice; 1 mM MgCl2 and 1 mM ATP in the running buffers; monomer and dimer bands quantified

Binding result, binds:
B3
B4
B5
B6
B7
B8
B9
